Assay results published in the supplement of paper PMC9170038.

Test system: MS2 coat protein
Test: apparent KD of MS2 coat protein; designed switch direction (-1 OFF switch, 1 ON switch): -1; higher = weaker reporter binding
Method in brief: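 The reported apparent KD is a per-design median over clusters, from curve fits of normalised cluster fluorescence. Protein titrations used SNAP-549-labelled MS2 coat protein, doubled from 0.7 or 1.5 nM to 3 µM, in Tris-HCl pH 7.5 buffer with KCl, MgCl2, BSA, DTT, tRNA and Tween-20, with no input, 200 uM small-molecule ligand, or an oligonucleotide input. The RNA switches were transcribed on Illumina chips by stalled E. coli RNA polymerase.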

[1] = Eterna round: R95, input ligand: FMN 200 uM
[2] = Eterna round: R95, input ligand: microRNA oligo, concentration not stated
[3] = Eterna round: R95, input ligand: none
[4] = input ligand: microRNA oligo, concentration not stated

| Sequence | apparent KD of MS2 coat protein [1] [nM] | apparent KD of MS2 coat protein [2] [nM] | apparent KD of MS2 coat protein [3] [nM] | apparent KD of MS2 coat protein [4] [nM] | apparent KD of MS2 coat protein (input ligand: FMN 200 uM) [nM] | apparent KD of MS2 coat protein (input ligand: none) [nM] |
| --- | --- | --- | --- | --- | --- | --- |
| UUUUUUGUUUUUUUUACAAGCUUUUUGCUCGUCUUAUUAACAUGAGGAUCACCCAUGUCAAAGAGACCUCAUGUAUU [Sensor v3 - turn-off variant 2 - 1] (puzzle: Sensor v3, turn-off variant 2) | 91.2 | 15.7 | 207 |  |  |  |
| UAUAUAUAGUAAGGAUAUGUAUUAAUUUUAUAAACAGAAGGUACUGACAUGAGGAUCACCCAUGUUUUAGUGUGGGCAUGUAGA [JMF's solution 9] (Eterna round: R96, puzzle: Exclusion NG 1) |  |  |  | 72.8 |  |  |
| CGGUAAAUAGGAUAUACAUGAGGAUCACCCAUGUUCCAUAGCACUCGGAGGGUUCCCAGUAGAAGGGUUGGCCU [EX3 C.17] (Eterna round: R97, puzzle: Exclusion 3) |  |  |  |  | 16 | 19.4 |
| CAUGAUUGGCGAGGAUAUUGACCUAGUUAGCGACGAGAAGGCGCCUGUCACAUGAGGAUCACCCAUGUGAAUCUGGUGAAAGAG [Ex NG1 #92] (Eterna round: R96, puzzle: Exclusion NG 1) |  |  |  | 13.3 | 21.6 | 18.3 |
| AGUACUUACUCGAUAGUGUUAGUACAAUAAGCUUGUGAAACAUGAGGAUCACCCAUGUCCUCAUUAGCUCGUCUUAU [salish99_TOv2_r3_1006] (puzzle: Sensor v3, turn-off variant 2) | 206 | 758 | 199 |  |  |  |
| UUUUAGACAGGAUAUACAUUUUUUUAUUUAUUUAUAAUAUUACAUGAGGAUCACCCAUGUAGAAGGGUCAUUUU [My Design] (puzzle: Exclusion 2) |  | 37.1 |  |  |  |  |
| UUAUUAUAUGUAGGAUAUGCAUAUUAUUAUUAUGCAGAAGGACAUGAGGAUCACCCAUGUAUAUUAUUAUUAUAUGUUAUAUAU [Title] (Eterna round: R96, puzzle: Exclusion NG 1) |  |  |  | 20.9 |  |  |
| UACAUGAGGAUCACCCAUGUUUUGUCGUGUAUGGUAUUUAUCUAGGAUAUCAAUGUAUUAAUUUAUGAGAAGGAGAAUAUUAAU [JMF's solution 44] (Eterna round: R96, puzzle: Exclusion NG 3) |  |  |  | 27.3 | 42 | 43.2 |
| CCCGGGCUUGUGAGGAUAUUGUGUGUGAAAGCGCGCGAGAAGGCACAUGAGGAUCACCCAUGUAAGGGCCCGGG [-34.6, -32.6 kcal, A 23%, 6bis-0] (Eterna round: R97, puzzle: Brourd's mod of Exclusion 4) |  |  |  |  | 19.3 | 85.9 |
| GAGUACUGAGGAUAUACAUGAGGAUCACCCAUGUGUUCCAGCUAGGAAACUAGCAAAAGUAGAAGGCAGUACUG [salish99_ex3_r3_084] (puzzle: Exclusion 3) |  | 18.9 |  |  |  |  |
| GGUACUAUCACCUGAGUGGUAGUGCUAUAAGCUUGUGAUACAUGAGGAUCACCCAUGUCCUCAUUUGCUCGUCUUAU [JL-sv3-2.29 JL mod] (puzzle: Sensor v3, turn-off variant 2) | 602 | 610 | 824 |  |  |  |
| AGUAACUCAAGAGGAUAUCACAUGAGGAUCACCCAUGUAUAGCGCGCUGCGCUAGUCCUCGUAUUUGAGAAGGUUUGAUAAAUG [Riausve] (Eterna round: R96, puzzle: Exclusion NG 2) |  |  |  | 10.8 | 13 | 15.7 |
| GUAACAUGCUGGUGAUCAUACAUGAGGAUCACCCAUGUAACAAGCUUUUUGUUCGUCUUAUAAUUUAAGAUCACCAG [Stov1/7-B3] (Eterna round: R97, puzzle: Sensor, turn-off variant 1) |  |  |  |  | 19.8 | 21.8 |
| ACAUGUGUUGUAGGAUAUAGGAGACAUGAGGAUCACCCAUGUUGAUUCAUGUCUAUGGAAACGUCCUAGAAGGACGACAACAUG [Ex NG2 #20] (Eterna round: R96, puzzle: Exclusion NG 2) |  |  |  | 111 | 237 | 201 |
| CCUCUACAUGAGGAUCACCCAUGUUAGGAUAUGCCGGCCGACCUCGGGUGUGUAAUACGCAGAAGGAACGUUAC [Eternabot (Original) Solution 49] (Eterna round: R97, puzzle: Exclusion 1) |  |  |  |  | 835 | 2390 |
| AUAAUGUGAGGAUAUCGAGACUACUGCUGCGGCAGUAGUCUCGAGAAGGCACAUGAGGAUCACCCAUGUGAUCA [E4/2-A3] (Eterna round: R97, puzzle: Exclusion 4) |  |  |  |  | 89.7 | 1590 |
| UAUUAGCAAGCGAGAUCCCACAUGAGGAUCACCCAUGUAGCUCGUCUUAUAAAGGUUUCGACGAAAACGUCGAGACC [Eli 91 v27] (Eterna round: R97, puzzle: Sensor, turn-off variant 1) |  |  |  |  | 17.5 | 16.1 |

| Sequence | apparent KD of MS2 coat protein [1] [nM] | apparent KD of MS2 coat protein [2] [nM] | apparent KD of MS2 coat protein [3] [nM] | apparent KD of MS2 coat protein [4] [nM] | apparent KD of MS2 coat protein (input ligand: FMN 200 uM) [nM] | apparent KD of MS2 coat protein (input ligand: none) [nM] |
| --- | --- | --- | --- | --- | --- | --- |
| AAUUCACAUGAGGAUCACCCAUGUCAGGAUAUGGUUUCACGUGUUUCUGUGCUUGAGGCCAGAAGGGACAGCUA (puzzle: Exclusion 1) |  | 50.3 |  |  |  |  |
| GGUUGGCGAGGAUAUACAUGAGGAUCACCCAUGUGGUCCUGUGGAAAAAAAAACCUUUGUAGAAGGCGCGGGUC [salish99_ex3_r4_032] (Eterna round: R97, puzzle: Exclusion 3) |  |  |  |  | 415 | 534 |
| UGAGCUUACGCAGGAUAUGAGGAUCACCCAUAGAAGGAUAUCGAAAGAGAAGGUCUGAGGAUUACCCAGAAGGGCGUGGGCUCU [pwkr exNG2 2xF5 2xFMN.11] (Eterna round: R96, puzzle: Exclusion NG 2) |  |  |  | 125 | 1290 | 131 |
| CUGUACUGAGGAUAUACAUGAGGAUCACCCAUGUGCUUCAGCUAGGAAACUAGCAAAGGUAGAAGGCAGUACAG [Mat - Exclusion 3 - Eli Mod - D58] (Eterna round: R97, puzzle: Exclusion 3) |  |  |  |  | 109 | 14.5 |
| AGCUGUGGCCGAGGAUAUCUAUCCAAAAUAACCGAAAUAUAAUCGGACAUGAGGAUCACCCAUGUAGAGAAGGCGGUCUCAGCA [Eli eng2 - 087] (Eterna round: R96, puzzle: Exclusion NG 2) |  |  |  | 18.6 |  |  |
| GAUUAUGCGAGCUUUAGGGACAUGAGGAUCACCCAUGUUCGUCUUAUUAGUCUGGGUGCACUGACAUACCUAAAUCU [JMF 93] (puzzle: Sensor v3, turn-off variant 1) | 169 | 202 | 320 |  |  |  |
| AUAUUGAUAGUAAGGAUAUGCGUGUGUGUAGUGAUGCAGAAGGUACAUGAGGAUCACCCAUGUAUUAAUGUGUG [LRO-BmodExc4-10-Oppy's Opus] (Eterna round: R97, puzzle: Brourd's mod of Exclusion 4) |  |  |  |  | 20.5 | 16.7 |
| UCUGGAGCAGGAUAUAUAUGACGUGCUUCGGCACGAAGGUCACAUGAGGAUCACCCAUGUAGAAGGGCUCCAGA [E2/9-D2] (Eterna round: R97, puzzle: Exclusion 2) |  |  |  |  | 344 | 43.6 |
| GUGAUAUAGUUAGUGGCCUACAUGAGGAUCACCCAUGUGAGGGAAAUGUUGAGGCGAAAGUUGUGUGCUCGUCUGUA [JR_SV3TOV1_Sub039] (puzzle: Sensor v3, turn-off variant 1) | 23.6 | 38.9 | 26.5 |  |  |  |
| GGAUCGUAUGUCAGGAUAUACCACUGGAUACAGUGGUAGAAGGGACAUGAGGAUCACCCAUGUCUUAUCGAUCC [Fiskers BMX 4 - 52] (puzzle: Brourd's mod of Exclusion 4) |  | 14.3 |  |  |  |  |
| AAGAAUGAAGGAUAUACAUGAGGAUCACCCAUGUAAAAAAAAUUUUUUAGUUUUUCAUGUAGAAGGUCAAGAAG [JR_Exclusion3_Sub001] (puzzle: Exclusion 3) | 47.9 | 41.8 | 43.6 |  |  |  |
| UCGACGUCGUCAGGAUAUAGUUUUAAUGUCAUGCUUUUGUUCGUACAUGAGGAUCACCCAUGUGGCUAGAAGGGACUAAAGAUU [JR_ExcNG2_Sub014] (Eterna round: R96, puzzle: Exclusion NG 2) |  |  |  | 27 | 22.9 | 18.8 |
| GAAGCACAUGAGGAUCACCCAUGUGAGGAUAUCCGUCUGGUCCGGCCGGACCAGUACCGGAGAAGGCGCGUAAA [Excls1-Ia] (puzzle: Exclusion 1) |  | 40.1 |  |  |  |  |
| AACCUGAGGCUUUGCUUUAGGUGUACAUGAGGAUCACCCAUGUAGGAUAUGGUAGGCAAAGCUUACCAGAAGGACAUGUUAAUU [Mat - Exclusion NG 3 - Mod of JL - D37] (Eterna round: R96, puzzle: Exclusion NG 3) |  |  |  | 44.3 | 122 | 59.3 |
| ACAAGCUUUUGGAUUUUCAACAUGAGGAUCACCCAUGUUCGUCUUAUGCGAGUGCGAGUGCGGUGUACUCGUAUUAG [JL TOV1 3.86 sellena mod] (Eterna round: R97, puzzle: Sensor, turn-off variant 1) |  |  |  |  | 25.3 | 24.4 |
| GUCAGCUCGUCAGGAUAUACAUGAGGAUCACCCAUGUGGUCAUUAGCAGCUUCGGCUGCAUUAAUGUAGAAGGGACGAGCUGAC [ENG2/8-B1] (Eterna round: R96, puzzle: Exclusion NG 2) |  |  |  | 357 | 1120 | 591 |
| GUGUUGUCAGGAUAUCUUACAUAACUAUCGUUGUUACCAUUGGAGAAGGGACAUGAGGAUCACCCAUGUUUUCG [tap-tap-tappy50] (Eterna round: R97, puzzle: Exclusion 4) |  |  |  |  | 23.9 | 24.6 |
